According to patent US20260061042A1, “POLYNUCLEOTIDE COMPOSITIONS AND USES THEREOF” (Pfizer Inc., priority 2024, published 2026):

B1: BMD576_PapG-DSF WT_DAF-GPI: monovalent PapG modRNA LNP; RNA construct SEQ ID NO: 65 (nucleic acid)
chain: AGGAGGACUGGUCGAACCUGCAUAGUGAUCAUAAGGUCAGCAUAGCCACCAUGGAGACCGACACCCUCCUGCUGUGGGUGCUGUUACUGUGGGUGCCCGGUAGCACCGGCUGGAACAACAUCGUGUUCUACAGCCUGGGCAACGUGAACAGCUACCAAGGCGGCAACGUGGUGAUCACACAGAGACCUCAGUUCAUCACAAGCUGGAGACCCGGCAUCGCCACCGUGACCUGGAAUCAGUGCAACGGCCCCGAGUUCGCCGACGGCAGCUGGGCCUACUACAGAGAGUACAUCGCCUGGGUGGUGUUCCCCAAGAAGGUGAUGACCAAGAACGGCUACCCCCUGUUCAUCGAGGUGCACAACAAGGGCAGCUGGAGCGAGGAGAACACCGGCGACAGCGACAGCUACUUCUUCCUGAAGGGCUACAAGUGGGACGAGAGAGCCUUCGACGCCGGCAACCUGUGUCAGAAGCCGGGGGAGACCACAAGACUUACCGAGAAGUUCAACGACAUCAUCUUCAAGGUGGCCCUGCCCGCCGACCUGCCCCUGGGCGACUACAGCGUGACCAUCCCCUACACAAGCGGCAUUCAGAGACACUUCGCUAGCUACCUGGGCGCUAGAUUCAAGAUCCCCUACAACGUGGCCAAGACCCUGCCUAGAGAGAACGAGAUGCUGUUCCUGUUCAAGAACAUCGGCGGCUGCAGACCUAGCGCUCAGAGCCUGGAGAUCAAGCACGGCGACCUGAGCAUCAACAGCGCCAACAACCACUACGCCGCUCAGACCCUGAGCGUGAGCUGCGACGUGCCCGCCAACAUCAGAUUCAUGCUGCUGAGAUCAACCACCCCCACCUACAGCCACGGCAAGAAGUUCAGCGUGGGCCUGGGCCACGGCUGGGACAGCAUCGUGAGCGUGAACGGCGUGGACACGGGCGAGACCACUAUGCGUUGGUACAAGGCCGGCACACAGAGCCUGACCAUCGGCAGCAGACUGUAUGGCGAAAGCUCCAAAAUCCAACCCGGCGUGCUGUCGGGGAGCGCCACCCUGCUGAUGAUACUGCCCGGAGGCAGCAGCGGCGGCGCCGACGUGCAGAUCAACAUCAGAGGCAACGUGUAUAUUCCGCCUAGCAGUGGUGGUGGGGGUAGCUCCGGCUCCGGAAGCAGCUGCGAGGGCAUCAGCCUGCUGGCUCAGAACACAAGCUGGCUGCUGCUGCUGCUGCUGAGCCUGAGCCUGCUGCAAGCCACCGACUUCAUGAGCCUGUGAUGAGCUCGCUUUCUUGCUGUCCAAUUUCUAUUAAAGGUUCCUUUGUUCCCUAAGUCCAACUACUAAACUGGGGGAUAUUAUGAAGGGCCUUGAGCAUCUGGAUUCUGCCUAAUAAAAAACAUUUAUUUUCAUUGCAAAAAAAAAAAAAAAAAAAAAAAAAAAAAAAAAAAAAAAAAAAAAAAAAAAAAAAAAAAAAAAAAAAAAAAAAAAAAAAAAA
modifications: modRNA in LNP
B2: BMD576_PapGLD WT_DAF-GPI: monovalent PapG modRNA LNP; RNA construct SEQ ID NO: 45 (nucleic acid)
chain: AGGAGGACUGGUCGAACCUGCAUAGUGAUCAUAAGGUCAGCAUAGCCACCAUGGAGACCGACACACUGCUGCUGUGGGUGCUUUUGUUGUGGGUGCCCGGUUCUACCGGAUGGAACAACAUCGUGUUCUACAGCCUGGGCAACGUGAACAGCUACCAAGGCGGCAACGUGGUGAUCACACAGAGACCUCAGUUCAUCACAAGCUGGAGACCCGGCAUCGCCACCGUGACCUGGAAUCAGUGCAACGGCCCCGAGUUCGCCGACGGCAGCUGGGCCUACUACAGAGAGUACAUCGCCUGGGUGGUGUUCCCCAAGAAGGUGAUGACCAAGAACGGCUACCCCCUGUUCAUCGAGGUGCACAACAAGGGCAGCUGGAGCGAGGAGAACACCGGCGACAGCGACAGCUACUUCUUCCUGAAGGGCUACAAGUGGGACGAGAGAGCCUUCGACGCCGGCAACCUGUGUCAGAAGCCCGGCGAGACCACAAGACUGACCGAGAAGUUCAACGACAUCAUCUUCAAGGUGGCCCUGCCCGCCGACCUGCCCCUGGGCGACUACAGCGUGACCAUCCCCUACACAAGCGGCAUUCAGAGACACUUCGCUAGCUACCUGGGCGCUAGAUUCAAGAUCCCCUACAACGUGGCCAAGACCCUGCCUAGAGAGAACGAGAUGCUGUUCCUGUUCAAGAACAUCGGCGGCAGUUCUGGUGGCGGUGGUUCAAGUGGUAGUGGCAGUUCAAGUGGGACAACACGACUGUUGAGCGGGCAUACGUGUUUUACGCUGACAGGUCUUCUGGGCACGCUGGUUACUAUGGGCUUGCUUACGUGAUGAGCUCGCUUUCUUGCUGUCCAAUUUCUAUUAAAGGUUCCUUUGUUCCCUAAGUCCAACUACUAAACUGGGGGAUAUUAUGAAGGGCCUUGAGCAUCUGGAUUCUGCCUAAUAAAAAACAUUUAUUUUCAUUGCAAAAAAAAAAAAAAAAAAAAAAAAAAAAAAAAAAAAAAAAAAAAAAAAAAAAAAAAAAAAAAAAAAAAAAAAAAAAAAAAAA
modifications: modRNA in LNP
B3: BMD576_PapGLD K172A_DAF-GPI: monovalent PapG modRNA LNP; RNA construct SEQ ID NO: 52 (nucleic acid)
chain: AGGAGGACUGGUCGAACCUGCAUAGUGAUCAUAAGGUCAGCAUAGCCACCAUGGAGACCGACACACUGCUGCUGUGGGUGCUUUUGUUGUGGGUGCCCGGUUCUACCGGAUGGAACAACAUCGUGUUCUACAGCCUGGGCAACGUGAACAGCUACCAAGGCGGCAACGUGGUGAUCACACAGAGACCUCAGUUCAUCACAAGCUGGAGACCCGGCAUCGCCACCGUGACCUGGAAUCAGUGCAACGGCCCCGAGUUCGCCGACGGCAGCUGGGCCUACUACAGAGAGUACAUCGCCUGGGUGGUGUUCCCCAAGAAGGUGAUGACCAAGAACGGCUACCCCCUGUUCAUCGAGGUGCACAACAAGGGCAGCUGGAGCGAGGAGAACACCGGCGACAGCGACAGCUACUUCUUCCUGAAGGGCUACAAGUGGGACGAGAGAGCCUUCGACGCCGGCAACCUGUGUCAGAAGCCCGGCGAGACCACAAGACUGACCGAGAAGUUCAACGACAUCAUCUUCAAGGUGGCCCUGCCCGCCGACCUGCCCCUGGGCGACUACAGCGUGACCAUCCCCUACACAAGCGGCAUUCAGAGACACUUCGCUAGCUACCUGGGCGCUAGAUUCGCCAUCCCCUACAACGUGGCCAAGACCCUGCCUAGAGAGAACGAGAUGCUGUUCCUGUUCAAGAACAUCGGCGGCAGUUCUGGUGGCGGUGGUUCAAGUGGUAGUGGCAGUUCAAGUGGGACAACACGACUGUUGAGCGGGCAUACGUGUUUUACGCUGACAGGUCUUCUGGGCACGCUGGUUACUAUGGGCUUGCUUACGUGAUGAGCUCGCUUUCUUGCUGUCCAAUUUCUAUUAAAGGUUCCUUUGUUCCCUAAGUCCAACUACUAAACUGGGGGAUAUUAUGAAGGGCCUUGAGCAUCUGGAUUCUGCCUAAUAAAAAACAUUUAUUUUCAUUGCAAAAAAAAAAAAAAAAAAAAAAAAAAAAAAAAAAAAAAAAAAAAAAAAAAAAAAAAAAAAAAAAAAAAAAAAAAAAAAAAAA
modifications: modRNA in LNP

Tested on: E. coli strain CFT073 expressing the fimbrial adhesin PapG
Assay: PapG hemagglutination inhibition (HAI) assay on sera of mice immunized with PapG modRNA LNPs
Format: in vivo
Settings: 1 μg, 50 μl IM; for Step Titer GMT (HAI): weeks 0, 4, bleed week 6, GMT of individual titers; for Step Titer Pool (HAI): weeks 0, 4, bleed week 6, serum pool
Source text: Escherichia coli to the uroepithelium of human kidney. The PapG lectin binds to the globoside (GbO4) glycolipid, which is enriched in urinary tract tissue and consists of the tetrasacharide GalNAcβ1-3Galα1-4Galβ1-4Glc linked to ceramide. Here we present the use of a hemagglutination inhibition assay (HAI) to determine vaccine functional responses to protein subunit PapG or mRNA-expressed PapG antigens. In this assay the agglutination of human red blood cells (hRBCs) expressing GbO4 is caused by live E. coli CFT073 bacteria expressing PapG. The HAI assay measures the ability of PapG-elicited antibodies to prevent hRBC agglutination, exemplifying inhibition of the key bacterial adherence mechanism leading to clinical pyelonephritis. The assay was used to characterize the functional activity of PapG monoclonal antibodies (mAbs) raised against a PapG lectin domain subunit antigen. PapG HAI data from a mouse immunogenicity study are described that evaluated various 5 monovalent PapG modRNA LNPs and a PapG subunit comparator.
In this mouse study immunogenicity of different PapG mRNA constructs were evaluated. […]
iii. PapG Hemagglutination Inhibition Assay (HAI) 1. Preparation of Single Use Frozen E. coli CFT073 Banks Frozen bacterial stocks for use in the PapG HAI are stored at a concentration of ˜15 OD/mL. For stock preparation, take 6 ×100 μL of frozen parental strain CFT073 glycerol stock to seed six overnight cultures with ˜85 mL Luria's Broth (LB) each in 250 mL vented flasks. Flasks are shaken at 200 rpm and 37° C. overnight. On the same day, prepare 100 mL LB media with 30% glycerol and 0.4% sucrose by mixing […] 80% Glycerol with 0.8 mL 50% Sucrose in 64 mL LB and pre-chill at 4° C. After ˜16 h growth, determine the OD600 nm of each flask with the SpectraMax M5e plate reader by adding 100 μL culture to 900 μL LB (1:10 dilution). After reading the OD600, harvest cells by pelleting in a centrifuge at 4,000g, 4° C., for 30 minute. Determine the total OD of each of the six flasks, by multiplying the volume by OD/mL of each flask and divide by 15 OD to give the appropriate pellet resuspension volume. Discard supernatants and resuspend all pellets in the pre-chilled LB cryopreservant containing 30% glycerol and 0.4% sucrose, with a final volume as calculated above. Pool all resuspended pellets and mix gently, then aliquot into 1 mL/cryotube, and freeze at −70° C.
2. Preparing 10% hRBC Working Solution From Stock
Gently mix human red blood cells (hRBC) bottle (Rockland) by rocking ˜20×times, pipet out 10 mL of the hRBCs into a 15 ml conical tube. Centrifuge at 2,000 rpm(˜990×g) for 10 minutes and 4° C. Aspirate and discard the supernatant, then resuspend the pellet with 9 mL 4° C. PBS. The packed hRBCs in 15 mL conical tube should constitute roughly 1 mL of this total volume. Store these 10% hRBCs at 4° C. until use. […]
iv. PapG Hemagglutination Inhibition (HAI) Assay
The PapG hemagglutination inhibition (HAI) assay uses human red blood cells (hRBCs), which naturally express the PapG ligand GbO4 (globotetraosyl ceramide) on the cell surface, and the E. coli strain CFT073 expressing the fimbrial adhesin PapG. Upon mixing bacteria with hRBCs, […] cells remain suspended (presenting as a cloudy well), while no binding results in the red blood cells falling out of solution towards the center of the well (observed as pellet).
The total final well volume is 100 μL, with serum dilutions comprising 25 μL of this volume, strain CFT073 cells in […] volume, and hRBCs in a 50 μL volume. The assay plate is a V-bottom plate to which 25 μL 4° C. PBS is initially added to all wells. The positive control wells receive an additional 25 μL 4° C. PBS. The no-serum negative control consists of E. coli CFT073 cells plus hRBCs only (resulting agglutinated well appears cloudy). To accommodate pre-diluted sera transferred from the serum Master Dilution plate (MDP) an extra 5 μL 4° C. PBS is added to wells in Row A of the assay plate (columns 1 to 12). […]

Row | Molecule | Step Titer GMT (HAI) | Step Titer Pool (HAI)
1 | B1 | 89,753 | 81,000
2 | B2 | 94,822 | 81,000
3 | B3 | 98,165 | 81,000
